# Tests used:
# [1] = target: T1, integrin αVβ3 (Mus musculus, UniProt O54890+P43406); assay: Integrin binding assay (inhibition of biotinylated vitronectin binding); conditions: dilution series, absorbance at 450 nm
# T1 construct: purchased R&D Systems, Inc
# T1 sequence (P43406 31-988 limits assumed): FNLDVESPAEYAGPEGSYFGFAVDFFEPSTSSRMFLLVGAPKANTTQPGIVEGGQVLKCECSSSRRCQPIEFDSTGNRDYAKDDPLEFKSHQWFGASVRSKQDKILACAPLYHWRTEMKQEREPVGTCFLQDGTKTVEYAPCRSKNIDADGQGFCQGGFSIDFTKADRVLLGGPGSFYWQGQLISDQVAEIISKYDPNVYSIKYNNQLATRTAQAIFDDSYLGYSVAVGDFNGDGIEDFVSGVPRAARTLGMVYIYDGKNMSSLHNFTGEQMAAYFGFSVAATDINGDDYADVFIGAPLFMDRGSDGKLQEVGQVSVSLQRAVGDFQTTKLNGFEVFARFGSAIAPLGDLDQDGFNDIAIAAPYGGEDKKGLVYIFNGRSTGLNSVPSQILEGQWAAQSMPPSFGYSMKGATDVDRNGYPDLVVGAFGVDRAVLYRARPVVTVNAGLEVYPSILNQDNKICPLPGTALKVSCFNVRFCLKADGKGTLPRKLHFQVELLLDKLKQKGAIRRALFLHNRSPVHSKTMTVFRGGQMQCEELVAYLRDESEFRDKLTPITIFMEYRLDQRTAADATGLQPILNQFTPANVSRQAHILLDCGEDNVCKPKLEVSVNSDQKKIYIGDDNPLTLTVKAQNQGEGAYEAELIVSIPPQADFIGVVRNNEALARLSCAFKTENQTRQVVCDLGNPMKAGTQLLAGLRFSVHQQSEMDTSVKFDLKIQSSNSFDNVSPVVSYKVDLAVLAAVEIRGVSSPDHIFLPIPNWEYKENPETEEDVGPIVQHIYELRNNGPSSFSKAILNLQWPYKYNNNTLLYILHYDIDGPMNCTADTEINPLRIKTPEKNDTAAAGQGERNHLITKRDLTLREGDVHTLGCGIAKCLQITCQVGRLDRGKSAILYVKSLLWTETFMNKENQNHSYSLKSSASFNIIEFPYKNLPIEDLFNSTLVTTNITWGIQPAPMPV
# T1 sequence (O54890 26-717 limits assumed): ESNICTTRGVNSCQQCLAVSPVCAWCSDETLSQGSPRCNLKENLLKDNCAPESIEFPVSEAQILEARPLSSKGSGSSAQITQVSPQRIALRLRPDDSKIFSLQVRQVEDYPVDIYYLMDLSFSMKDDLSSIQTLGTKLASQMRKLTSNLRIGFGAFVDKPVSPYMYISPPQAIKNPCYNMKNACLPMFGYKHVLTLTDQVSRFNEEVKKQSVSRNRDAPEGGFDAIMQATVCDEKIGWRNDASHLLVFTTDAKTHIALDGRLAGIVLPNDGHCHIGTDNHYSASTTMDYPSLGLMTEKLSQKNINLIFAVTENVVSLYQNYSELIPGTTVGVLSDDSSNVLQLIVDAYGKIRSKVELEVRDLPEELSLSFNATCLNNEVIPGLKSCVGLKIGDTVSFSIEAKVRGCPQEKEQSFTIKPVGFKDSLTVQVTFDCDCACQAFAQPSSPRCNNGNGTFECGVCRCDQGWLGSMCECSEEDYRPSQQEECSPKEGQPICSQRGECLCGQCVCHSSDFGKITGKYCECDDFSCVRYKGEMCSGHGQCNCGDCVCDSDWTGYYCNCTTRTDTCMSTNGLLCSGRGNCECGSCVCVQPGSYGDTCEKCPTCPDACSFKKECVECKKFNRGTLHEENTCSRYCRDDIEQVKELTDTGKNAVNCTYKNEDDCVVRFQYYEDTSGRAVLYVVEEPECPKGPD
# Procedure: 100 μL each of 1 μg/mL Recombinant Mouse Integrin alpha V beta 3 Protein (R&D Systems, Inc.) produced with PBS(−) was added to a 96-well Costar high capacity binding plate, and the plate was left to stand overnight at 4° C. to thereby bind integrin αVβ3 to the bottom face of the wells. Subsequently, integrin αVβ3 in the wells was removed by suctioning, and 200 μL of a Blocking/Binding buffer (50 mM Tris HCl at pH 7.4, 100 mM NaCl, 2 mM CaCl2, 1 mM MgCl2, 1 mM MnCl2, 1% BSA) was added to each well. Blocking was performed at an interval of one hour at room temperature.
# 100 μL of biotinylated vitronectin (1 μg/mL) obtained by biotinylated human recombinant vitronectin (Wako Pure Chemical Industries, Ltd.) was added in advance into each well using Biotin Labeling Kit-NH2 (Dojindo Molecular Technologies, Inc.), and the plate was left to stand at room temperature for 3 hours. Subsequently, the wells were washed three times using 200 μL of Blocking/Binding buffer, and 100 μL of streptavidin-HRP (GE Healthcare) diluted 10,000 times with the Blocking/Binding buffer was added to each well. The mixture was left to stand for one hour at room temperature. The wells were washed two times using 200 μL of the Blocking/Binding buffer. […]
# Within 30 minutes after the addition, the absorbance at 450 nm was measured, and the binding ratio of biotinylated vitronectin to integrin αVβ3 was calculated.
# [2] = Average particle size, single nanoparticle size analyzer IG-1000; type: physicochemical
# Procedure: The measurement of the average particle size of the compositions including block copolymers of Examples 3 to 10 and Comparative Examples 1 to 6 was carried out using a single nanoparticle size analyzer, IG-1000, manufactured by Shimadzu Corp. (measurement temperature: 25° C., light intensity at t=0: 100 to 200).
# Regarding a sample for measuring the average particle size, a solution produced to have a concentration of 2 mg/mL or 5 mg/mL in terms of the composition weight and filtered through a 0.45-μm membrane filter, was used.
# [3] = Test Example 4: tissue distribution in kidney (fluorescence of sections); type: in vivo, nude mice; conditions: i.v. 5 mg/kg in terms of fluorescent substance
# Procedure: (§1) A suspension of cultured cancer cell human glioma U87MG was subcutaneously transplanted on the dorsal sides of nude mice using an injection needle-attached syringe. Example 7, Comparative Example 2, and Comparative Example 3 were dissolved in a 5% glucose injectable solution, and each of the solutions was intravenously administered a single time in an amount of 5 mg/kg in terms of 2-(2-aminoethoxy)-9-(diethylamino)-5H-benzo[a]phenoxazin-5-one.
# (§2) After one hour and after 24 hours from the administration, the mice were exsanguinated under isoflurane anesthesia, and frozen embedded sections of extracted tumor and kidney were produced. Fluorescence derived from 2-(2-aminoethoxy)-9-(diethylamino)-5H-benzo[a]phenoxazin-5-one in the administered composition was observed.
# (§3) Furthermore, based on those images, the luminance was calculated using Image-Pro Premier (Media Cybernetics, Inc.), and the values of luminance of tumor tissue sections are shown in FIG. 9, while the values of luminance of kidney tissue sections are shown in FIG. 11.
# [4] = test system: human glioma U87MG; assay: Test Example 4: tissue distribution in tumor (fluorescence of sections); type: in vivo, nude mice; conditions: one hour after i.v. administration, 5 mg/kg in terms of fluorescent substance
# Procedure: as §1, §2, §3
# [5] = Test for drug releasability into phosphate buffer solution; type: physicochemical; conditions: phosphate buffer solution pH 7.4, 37° C., 6 hours, 1.0 mg/mL, absence of enzyme
# Procedure: Example 7, Example 8, and Comparative Example 3 were respectively dissolved in a phosphate buffer solution (pH 7.4) at a concentration of 1.0 mg/mL in terms of the composition weight, and the solutions were left to stand at a constant temperature of 37° C. The amount of 7-ethyl-10-hydroxycamptothecin (EHC) released was measured over time by HPLC, and the proportion of the amount of EHC released with respect to the total amount of EHC in the compound used was determined.
Substance,inhibition of binding of vitronectin and integrin αVβ3 [1],average particle size ([2]; 2 mg/mL) [nm],distribution of fluorescence in kidney [3],distribution of fluorescence in tumor [4],EHC release (proportion of EHC released with respect to total EHC) [5] [%],average particle size ([2]; 5 mg/mL) [nm]
4-phenyl-1-butanol-bonded and 2-(2-aminoethoxy)-9-(diethylamino)-5H-benzo[a]phenoxazin-5-one-bonded product of polyethylene glycol (10 kilodaltons)-polyglutamic acid (21.0 polymerizations) block copolymer [Comparative Example 1],not recognized,,,,,
7-ethyl-10-hydroxycamptothecin (EHC)-bonded and 2-(2-aminoethoxy)-9-(diethylamino)-5H-benzo[a]phenoxazin-5-one-bonded product of polyethylene glycol (2 kilodaltons)-polyglutamic acid (7.59 polymerizations) block copolymer [Comparative Example 3],,13,fluorescence was observed in the blood vessels and the renal tubules,penetrated into the entire tumor compared to Comparative Example 2,61,
7-ethyl-10-hydroxycamptothecin (EHC)-bonded and 2-(2-aminoethoxy)-9-(diethylamino)-5H-benzo[a]phenoxazin-5-one-bonded product of polyethylene glycol (12 kilodaltons)-polyglutamic acid (22.0 polymerizations) block copolymer [Comparative Example 2],,,fluorescence was not recognized in areas other than in the blood vessels,,,23
